In assay [1] the target is ligand(s) that bind to CD83, on human peripheral blood cells (monocytes, some lymphocytes). As to the kind of experiment: flow cytometry on fresh human PBMC, biotinylated CD83Ig + PE streptavidin.
Assay [2] concerns the target ligand(s) that bind to CD83, on mouse cells (PBMC monocytes, lymph node lymphocytes, splenocytes). The assay is described as follows: flow cytometry on mouse splenocytes.
Assay [3] shares this target. As to the kind of experiment: flow cytometry on mouse PBMC.
Assay [4] shares this target. As to the kind of experiment: flow cytometry on mouse lymph node lymphocytes.

Bounds are passed on as bounds.

Regarding “human CD83-hIgG1 fusion protein (extracytoplasmic domain of human CD83 with a human IgG1 tail) (Fc fusion)”, in assay [1], the percent of cells bound (CD3+ cells, lymphocyte gate) was less than 1%; the percent of cells bound (CD3- cells, lymphocyte gate) was 4%; the percent of cells bound (larger cell scatter gate, monocytes) is more than 75%. The molecule further showed a percent of cells bound (non-T cell population of splenocytes) in assay [2] of 15%. The same molecule had a percent of cells bound (monocytes in peripheral blood) in assay [3] of 90%. In assay [4], this molecule registered a percent of cells bound (lymphocytes from lymph nodes) of less than 5%.

B1: human CD83 murine Ig fusion protein (human CD83 extracellular domain upstream of the murine IgG2a Fc domain) (Fc fusion)
chain: MSRGLQLLLLSCAYSLAPATPEVKVACSEDVDLPCTAPWDPQVPYTVSWVKLLEGGEERMETPQEDHLRGQHYHQKGQNGSFDAPNERPYSLKIRNTTSCNSGTYRCTLQDPDGQRNLSGKVILRVTGCPAQRKEETFKKYRAERSEPRGPTIKPCPPCKCPAPNSAGTSSVFIFPPKIKDVLMISLSPIVTCVVVDVSEDDPDVQISWFVNNVEVHTAQTQTHREDYNSTLRVVSALPIQHQDWMSGKEFKCKVNNKDLPAPIERTISKPKGSVRAPQVYVLPPPEEEMTKKQVTLTCMVTDFMPEDIYVEWTNNGKTELNYKNTEPVLDSDGSYFMYSKLRVEKKNWVERNSYSCSVVHEGLHNHHTTKSFSRTPGK
Regarding B1, the percent of cells bound (non-T cell population of splenocytes) in assay [2] amounted to 15%. In assay [3], this molecule yielded a percent of cells bound (monocytes in peripheral blood) of 90%. Further, in assay [4], the percent of cells bound (lymphocytes from lymph nodes) was less than 5%.

The values are drawn from patent US20030219436A1.
